B1: EGFP-RASSF5C (wild type) [not stated] / myc-MST1 K59R [not stated] (parent complex)
chain 1: MTVDSSMSSGYCSLDEELEDCFFTAKTTFFRNAQSKHLSKNVCKPVEETQRPPTLQEIKQKIDSYNTREKNCLGMKLSEDGTYTGFIKVHLKLRRPVTVPAGIRPQSIYDAIKEVNLAATTDKRTSFYLPLDAIKQLHISSTTTVSEVIQGLLKKFMVVDNPQKFALFKRIHKDGQVLFQKLSIADRPLYLRLLAGPDTEVLSFVLKENETGEVEWDAFSIPELQNFLTILEKEEQDKIQQVQKKYDKFRQKLEEALRESQGKPG
chain 2: METVQLRNPPRRQLKKLDEDSLTKQPEEVFDVLEKLGEGSYGSVYKAIHKETGQIVAIRQVPVESDLQEIIKEISIMQQCDSPHVVKYYGSYFKNTDLWIVMEYCGAGSVSDIIRLRNKTLTEDEIATILQSTLKGLEYLHFMRKIHRDIKAGNILLNTEGHAKLADFGVAGQLTDTMAKRNTVIGTPFWMAPEVIQEIGYNCVADIWSLGITAIEMAEGKPPYADIHPMRAIFMIPTNPPPTFRKPELWSDNFTDFVKQCLVKSPEQRATATQLLQHPFVRSAKGVSILRDLINEAMDVKLKRQESQQREVDQDDEENSEEDEMDSGTMVRAVGDEMGTVRVASTMTDGANTMIEHDDTLPSQLGTMVINAEDEEEEGTMKRRDETMQPAKPSFLEYFEQKEKENQINSFGKSVPGPLKNSSDWKIPQDGDYEFLKSWTVEDLQKRLLALDPMMEQEIEEIRQKYQSKRQPILDAIEAKKRRQQNF
B2: EGFP-RASSF1 (wild type) [not stated] / myc-MST1 K59R [not stated] (parent complex)
chain 1: MSGEPELIELRELAPAGRAGKGRTRLERANALRIARGTACNPTRQLVPGRGHRFQPAGPATHTWCDLCGDFIWGVVRKGLQCAHCKFTCHYRCRALVCLDCCGPRDLGWEPAVERDTNVDEPVEWETPDLSQAEIEQKIKEYNAQINSNLFMSLNKDGSYTGFIKVQLKLVRPVSVPSSKKPPSLQDARRGPGRGTSVRRRTSFYLPKDAVKHLHVLSRTRAREVIEALLRKFLVVDDPRKFALFERAERHGQVYLRKLLDDEQPLRLRLLAGPSDKALSFVLKENDSGEVNWDAFSMPELHNFLRILQREEEEHLRQILQKYSYCRQKIQEALHACPLG
chain 2: B1 chain 2
B3: EGFP-RASSF1 (wild type) [not stated] / mCherry-SARAH_(MST1) [not stated] (parent complex)
chain 1: B2 chain 1
chain 2: DYEFLKSWTVEDLQKRLLALDPMMEQEIEEIRQKYQSKRQPILDAIEAKKRRQQNF
B4: EGFP-RASSF5C (wild type) [not stated] / mCherry-SARAH_(MST1) [not stated] (parent complex)
chain 1: B1 chain 1
chain 2: B3 chain 2

Variants of: B1
Test: co-immunoprecipitation (IP anti-myc, IB anti-GFP), band quantification; n = 3; parent: 1.02; read off a plot

| Variant | ratio to parent |
| --- | --- |
| chain 1 L224P | ~0.98 |
| chain 1 L228P | ~0.9 |
| chain 1 L231P | ~0.85 |

Variants of: B2
Test: co-immunoprecipitation (IP anti-myc, IB anti-GFP), band quantification; n = 3; parent: 1.05; read off a plot

| Variant | ratio to parent |
| --- | --- |
| chain 1 L308P | ~0.13 |
| chain 1 L305P | ~0.07 |
| chain 1 L301P | ~0.32 |

Variants of: B3
Test: FRET-FLIM in cells (EGFP donor lifetime, monoexponential fit, wide-field imaging); co-expressed with mCherry-SARAH(MST1); median of segmented cells; parent: 2.25e+03; read off a plot

| Variant | response |
| --- | --- |
| chain 1 L305P | ~2490 ps |
| chain 1 L308P | ~2500 ps |
| chain 1 L301P | ~2510 ps |

Variants of: B4
Test: FRET-FLIM in cells (EGFP donor lifetime, monoexponential fit, wide-field imaging); co-expressed with mCherry-SARAH(MST1); median of segmented cells; parent: 2.27e+03; read off a plot

| Variant | response |
| --- | --- |
| chain 1 L224P | ~2380 ps |
| chain 1 L228P | ~2490 ps |
| chain 1 L231P | ~2430 ps |

From PMC4919659 (2016)
